These results are taken from PMC9420396.

For data set [1], the target named is T1, DDX21 helicase core WT (human, UniProt Q9NR30 188-563).
T1 sequence: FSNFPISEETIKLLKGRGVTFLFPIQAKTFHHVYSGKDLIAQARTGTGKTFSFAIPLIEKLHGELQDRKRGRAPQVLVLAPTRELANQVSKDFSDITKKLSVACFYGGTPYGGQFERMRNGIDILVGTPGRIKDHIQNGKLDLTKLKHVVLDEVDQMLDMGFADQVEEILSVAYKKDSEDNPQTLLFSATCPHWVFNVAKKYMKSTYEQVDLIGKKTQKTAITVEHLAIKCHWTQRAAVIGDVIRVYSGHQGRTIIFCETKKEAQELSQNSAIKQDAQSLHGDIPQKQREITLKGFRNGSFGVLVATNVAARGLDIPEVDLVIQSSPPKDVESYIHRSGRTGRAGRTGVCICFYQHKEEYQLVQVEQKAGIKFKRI
The data set is described as follows: MST.

The target of data set [2] is T1, DDX21 helicase core WT. The data set is described as follows: SEC co-elution.

Consider UUUUUUUUUUUUUUU (ssRNA) [U15 RNA, 5'-FAM], for which, in the data set with DDX21 helicase core WT [1], the binding result is “binds”.

In the case of UUUUUUUUUUUUUUU (ssRNA) [U15 RNA (SEC)], the binding result with DDX21 helicase core WT [2] was “binds”.
